Legend:
[1] = target: T1, human CXCR4 (human, UniProt P61073 1-352); test: cell-based or functional assay
[2] = target: T1, human CXCR4; test: cell-based or functional assay; remark: listed apart in the source
[3] = target: T1, human CXCR4; test: inhibition of 12G5 binding, Jurkat cells
[4] = target: T1, human CXCR4; test: SDF-1^AF647 displacement, SUPT-1 cells, flow cytometry, n = 3
[5] = target: T1, human CXCR4; test: inhibition of 12G5 (competitor, 10 nM PE-labelled) binding, THP-1 cells
[6] = target: T1, human CXCR4; test: inhibition of 12G5 (competitor, 10 nM PE-labelled) binding, Jurkat cells
[7] = target: T1, human CXCR4; test: inhibition of 12G5 (competitor, 10 nM PE-labelled) binding, SUPT-1 cells
[8] = target: T1, human CXCR4; test: inhibition of 12G5 binding, Jurkat cells; 12G5 inhibition on Jurkat cells; potency ratio to monovalent 281F12
[9] = target: T1, human CXCR4; test: inhibition of 12G5 (competitor, 10 nM PE-labelled) binding, Jurkat cells; 12G5 mAb binding inhibition on Jurkat cells (CD4 low)
[10] = target: T1, human CXCR4; test: SDF-1^AF647 displacement, SUPT-1 cells, flow cytometry, n = 3; SDF-1^AF647 displacement on SUPT-1 cells (CXCR4 and CD4 co-expressed)
[11] = target: T1, human CXCR4; test: inhibition of 12G5 (competitor, 10 nM PE-labelled) binding, SUPT-1 cells; 12G5 mAb binding inhibition on SUPT-1 cells (CXCR4 and CD4 co-expressed)

T1 sequence (P61073 whole entry): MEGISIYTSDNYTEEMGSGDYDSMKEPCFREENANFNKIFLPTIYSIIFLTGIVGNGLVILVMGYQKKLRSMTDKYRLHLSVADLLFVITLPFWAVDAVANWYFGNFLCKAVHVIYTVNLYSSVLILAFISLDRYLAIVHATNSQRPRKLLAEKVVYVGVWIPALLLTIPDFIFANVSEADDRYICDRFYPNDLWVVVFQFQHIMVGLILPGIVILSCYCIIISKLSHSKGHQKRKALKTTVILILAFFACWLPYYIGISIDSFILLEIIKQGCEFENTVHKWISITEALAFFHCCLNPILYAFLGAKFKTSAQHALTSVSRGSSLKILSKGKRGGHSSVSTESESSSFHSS

Row | Binder | IC50, inhibition of SDF-1a-mediated chemotaxis, Jurkat E6-1 cells [1] [nM] | IC50, inhibition of SDF-1a-mediated chemotaxis, MOLM-13 cells [1] [nM] | Ratio to 281F12 (fold increase in potency), chemotaxis, Jurkat E6-1 cells [1] [fold] | Ratio to 281F12 (fold increase in potency), chemotaxis, MOLM-13 cells [1] [fold] | IC50, SDF-1 induced Ca2+ signaling, U87-CD4-CXCR4 cells [2] [nM] | fold loss of potency compared to monovalent CXCR4 Nanobody construct [3] [fold] | IC50 [4] [nM] | IC50 [5] [nM] | IC50 [6] [nM] | IC50 [7] [nM] | fold loss of potency compared to monovalent CXCR4 Nanobody construct [8] [fold] | IC50 [9] [nM] | IC50 [10] [nM] | IC50 [11] [nM]
1 | 281F12-35GS-03F11 (bispecific antibody, Bispecific Nanobody construct, CXCR4 arm N-terminal; also called 281F12-35GS-3F11; CXCR4-35GS-CD4; not shown: C-terminal c-myc-His6 tag (E. coli) or FLAG3-His6 tag (Pichia)) EVQLVESGGGLVQAGDSLRLSCAASGRAFSRYAMGWFRQAPGKEREFVAAIGWGPSKTNYADSVKGRFTISRDNAKNTVYLQMNTLKPEDTAVYSCAAKFVNTDSTWSRSEMYTYWGQGTQVTVSSGGGGSGGGGSGGGGSGGGGSGGGGSGGGGSGGGGSEVQLVESGGGSVQPGGSLTLSCGTSGRTFNVMGWFRQAPGKEREFVAAVRWSSTGIYYTQYADSVKSRFTISRDNAKNTVYLEMNSLKPEDTAVYYCAADTYNSNPARWDGYDFRGQGTQVTVSS | 110 | 0.59 | 0.8 | 146 | 5.31 | 2 | 0.96 | 2.48 | 29.3 | 1.5 |  |  |  | 
2 | 03F11-35GS-281F12 (bispecific antibody, Bispecific Nanobody construct, CD4 arm N-terminal; also called CD4-35GS-CXCR4; 3F11-281F12; not shown: C-terminal c-myc-His6 tag (E. coli) or FLAG3-His6 tag (Pichia)) EVQLVESGGGSVQPGGSLTLSCGTSGRTFNVMGWFRQAPGKEREFVAAVRWSSTGIYYTQYADSVKSRFTISRDNAKNTVYLEMNSLKPEDTAVYYCAADTYNSNPARWDGYDFRGQGTQVTVSSGGGGSGGGGSGGGGSGGGGSGGGGSGGGGSGGGGSEVQLVESGGGLVQAGDSLRLSCAASGRAFSRYAMGWFRQAPGKEREFVAAIGWGPSKTNYADSVKGRFTISRDNAKNTVYLQMNTLKPEDTAVYSCAAKFVNTDSTWSRSEMYTYWGQGTQVTVSS | 460 | 1.29 | 0.2 | 67 | 3.43 |  |  |  |  |  | 50 | 631 | 1.5 | 56.6

From patent publication US20180086837A1 (Ablynx, published 2018)
